# B1: PEG-R170C-Apo2L.0(32176-78) (ligand)
# chain: VRERGPQRVAAHITGTRGRSNTLSSPNSKNEKALGRKINSWESSRSGHSFLSNLHLCNGELVIHEKGFYYIYSQTYFRFQEEIKENTKNDKQMVQYIYKYTSYPDPILLMKSARNSCWSKDAEYGLYSIYQGGIFELKENDRIFVSVTNEHLIDMDHEASFFGAFLVG
# modifications: Cys170 either carries methoxy-PEG-maleimide, MW 2,000 D, or is in a disulfide bond with Cys170 of another trimer; rest blocked with iodoacetamide
# notes: the number of chains is therefore not one value; also called partially PEGylated and disulfide crosslinked R170C-Apo2L.0; PEG-R170C-Apo2L.0 lot 32176-78
# B2: PEG-R170C-Apo2L.0 (32176-87C) (ligand)
# chain: B1 chain
# modifications: methoxy-PEG-maleimide, MW 2,000 D, on Cys170 (one PEG per monomer); residual unpegylated Cys170 carboxyamidomethylated with iodoacetamide
# notes: also called PEG-2K-R170C-Apo2L.0; R170C-PEG-2K
# Molecular target: T1, DR4 receptor (human, UniProt O00220 24-239, limits assumed)
# T1 construct: The construct used in the ELISA is not described
# T1 sequence (O00220 24-239 H141R/R209T limits assumed): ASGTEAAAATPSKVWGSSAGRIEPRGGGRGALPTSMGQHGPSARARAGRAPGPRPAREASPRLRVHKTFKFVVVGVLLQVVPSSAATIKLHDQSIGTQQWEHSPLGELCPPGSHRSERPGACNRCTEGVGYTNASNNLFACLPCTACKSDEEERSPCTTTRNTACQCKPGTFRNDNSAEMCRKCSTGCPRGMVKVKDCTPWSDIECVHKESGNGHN
# Experiment: receptor binding ELISA
row,Binder,EC50
1,B1,0.0045 µg/mL
2,B2,0.0422 µg/mL

# — patent US20040186051A1 (Genentech, published 2004)
